Laboratory results as given in patent US20240083986A1 (published 2024).

T1: European Hornbeam (Car b 1 isoform 1A & 1B, MyBiosource, Cat #MBS1200018) (European Hornbeam, UniProt P38949 2-160)
T1 construct: Bought reagent
T1 sequence (looked up): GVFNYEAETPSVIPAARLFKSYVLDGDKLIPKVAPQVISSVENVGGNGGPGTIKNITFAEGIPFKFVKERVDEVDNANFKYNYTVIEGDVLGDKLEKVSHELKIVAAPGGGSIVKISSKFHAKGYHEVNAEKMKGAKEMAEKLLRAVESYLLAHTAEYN

T2: Celery (Api g 1, MyBiosource, Cat #MBS1171376) (Celery, UniProt P49372 1-154, limits assumed)
T2 construct: Bought reagent
T2 sequence (looked up): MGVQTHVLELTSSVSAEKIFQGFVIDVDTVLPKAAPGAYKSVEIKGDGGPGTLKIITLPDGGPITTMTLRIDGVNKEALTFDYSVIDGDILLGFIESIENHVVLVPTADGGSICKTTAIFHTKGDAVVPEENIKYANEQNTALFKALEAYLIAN

T3: Alder (Aln g 1, MyBiosource, Cat #MBS1041484) (Alder, UniProt P38948 2-160, limits assumed)
T3 construct: Bought reagent
T3 sequence (looked up): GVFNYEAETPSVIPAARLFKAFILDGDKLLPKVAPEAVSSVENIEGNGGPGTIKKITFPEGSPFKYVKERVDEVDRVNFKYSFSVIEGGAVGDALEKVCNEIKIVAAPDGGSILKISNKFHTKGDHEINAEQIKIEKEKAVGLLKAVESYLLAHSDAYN

T4: CHO produced recombinant Bet v 1 containing a S85A mutation with a C-terminal myc-myc hexahistidine tag … (Betula verrucosa (birch))
T4 chain: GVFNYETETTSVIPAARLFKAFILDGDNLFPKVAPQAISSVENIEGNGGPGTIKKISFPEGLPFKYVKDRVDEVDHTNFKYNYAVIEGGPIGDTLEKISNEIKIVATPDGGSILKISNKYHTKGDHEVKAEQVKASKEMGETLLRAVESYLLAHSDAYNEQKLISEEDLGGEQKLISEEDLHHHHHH

T5: European Hornbeam (Car b 1 isoform 2, MyBiosource, Cat #MBS1043940) (European Hornbeam, UniProt P38950 2-160, limits assumed)
T5 construct: Bought reagent
T5 sequence (looked up): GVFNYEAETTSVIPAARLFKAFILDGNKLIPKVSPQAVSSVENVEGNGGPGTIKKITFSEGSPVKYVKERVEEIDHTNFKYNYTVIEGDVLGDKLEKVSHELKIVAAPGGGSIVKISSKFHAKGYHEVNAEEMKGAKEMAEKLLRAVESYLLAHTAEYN

T6: Apple (Mal d 1, MyBiosource, Cat #MBS1224919) (Apple, UniProt P43211 2-159, limits assumed)
T6 construct: Bought reagent
T6 sequence (looked up): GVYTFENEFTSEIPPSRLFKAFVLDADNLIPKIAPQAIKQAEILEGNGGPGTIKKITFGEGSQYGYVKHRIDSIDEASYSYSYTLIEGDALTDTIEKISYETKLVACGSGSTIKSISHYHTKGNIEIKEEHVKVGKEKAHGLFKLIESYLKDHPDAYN


Key:
[1] = molecular target: T1, European Hornbeam (Car b 1 isoform 1A & …); experiment: SPR, mAb captured via anti-hFc, 25 C
Protocol: (§1) Equilibrium dissociation constants (KD) for different related allergens binding to purified anti-Bet v 1 monoclonal antibodies were determined using a real-time surface plasmon resonance biosensor (SPR-Biacore) on a Biacore 4000 instrument. All binding studies were performed in 10 mM HEPES, 150 mM NaCl, 3 mM EDTA, and 0.05% v/v surfactant Tween-20, pH 7.4 (HBS-ET) running buffer at 25° C. […] Binding studies were performed on the following related allergens: Alder (Aln g 1, MyBiosource, Cat #MBS1041484), Apple (Mal d 1, MyBiosource, Cat #MBS1224919), Carrot (Dau c 1.2, MyBiosource, Cat #MBS1212920), Celery (Api g 1, MyBiosource, Cat #MBS1171376), Celery (Api g 2, MyBiosource, Cat #MBS1047880), European Hornbeam (Car b 1 isoform 1A & 1B, MyBiosource, Cat #MBS1200018), European Hornbeam (Car b 1 isoform 2, MyBiosource, Cat #MBS1043940), Hazel (Cor A 1, MyBiosource, Cat #MBS5304600), and White Oak (Que a 1, MyBiosource, Cat #MBS1258822). […] Association (kₐ) and dissociation (kd) rate constants were determined by fitting the real-time binding sensorgrams to a 1:1 binding model with mass transport limitation using Scrubber 2.0c curve-fitting software. Binding dissociation equilibrium constants (KD) and dissociative half-lives (t½) were calculated from the kinetic rate constants as:

[2] = molecular target: T2, Celery (Api g 1, MyBiosource, Cat …); experiment: SPR, mAb captured via anti-hFc, 25 C
Protocol: as §1

[3] = molecular target: T3, Alder (Aln g 1, MyBiosource, Cat …); experiment: SPR, mAb captured via anti-hFc, 25 C
Protocol: as §1

[4] = molecular target: T4, CHO produced recombinant Bet v 1 …; experiment: SPR, mAb captured via anti-hFc, 25 C
Protocol: (§2) Equilibrium dissociation constants (KD) for natural Bet v 1 binding to purified anti-Bet v 1 monoclonal antibodies were determined using a real-time surface plasmon resonance biosensor (SPR-Biacore) on a Biacore 4000 instrument. All binding studies were performed in 10 mM HEPES, 150 mM NaCl, 3 mM EDTA, and 0.05% v/v surfactant Tween-20, pH 7.4 (HBS-ET) running buffer at 25° C. and 37° C. […] Association (kₐ) and dissociation (kd) rate constants were determined by fitting the real-time binding sensorgrams to a 1:1 binding model with mass transport limitation using Scrubber 2.0c curve-fitting software. Binding dissociation equilibrium constants (KD) and dissociative half-lives (t½) were calculated from the kinetic rate constants as:

[5] = molecular target: T5, European Hornbeam (Car b 1 isoform 2, …); experiment: SPR, mAb captured via anti-hFc, 25 C
Protocol: as §1

[6] = molecular target: T4, CHO produced recombinant Bet v 1 …; experiment: SPR, mAb captured via anti-hFc, 37 C
Protocol: as §2

[7] = molecular target: T6, Apple (Mal d 1, MyBiosource, Cat …); experiment: SPR, mAb captured via anti-hFc, 25 C
Protocol: as §1

Row | Binder | 100 nM Analyte Bound (RU) [1] [RU] | Kd [1] [nM] | 100 nM Analyte Bound (RU) [2] [RU] | binding result [2] | 100 nM Analyte Bound (RU) [3] [RU] | 100 nM natural Bet v 1- MMH Bound (RU) [4] [RU] | Kd [4] [nM] | koff [4] [s⁻¹] | kon [4] [M⁻¹ s⁻¹] | t½ [4] [min] | 100 nM Analyte Bound (RU) [5] [RU] | Kd [5] [nM] | t½ [5] [min] | 100 nM natural Bet v 1-MHH Bound (RU) [6] [RU] | Kd [6] [nM] | koff [6] [s⁻¹] | kon [6] [M⁻¹ s⁻¹] | t½ [6] [min] | 100 nM Analyte Bound (RU) [7] [RU] | binding result [3] | other results
1 | H4H17045P2 (antibody, human IgG4, V domains shown, Fully human antibody with human IgG4 Fc (H4H prefix)) VH: EVQLVESGGGLVQPGVSLRLSCVASGFTFSNYDITWIRQIPGKGLEWVSRISGSGGSTYFADSVKGRFIISRDNSKNTVYMQMNSLRAEDSAVYYCARRDSVLFSMNSWLDPWGQGTLVTVSS VL: not shown | 5 | – | 0 | no binding (tested: 100 nM) | 0 | 60 | 6.23 | 0.000498 | 80000 | 23 | 5 | – | – | 84 | 14.3 | 0.00232 | 162000 | 5 | -1 | no binding (tested: 100 nM) | binding result [1]: no binding (tested: 100 nM); binding result [5]: no binding (tested: 100 nM)
2 | H4H17067P2 (antibody, human IgG4, V domains shown, Fully human antibody with human IgG4 Fc (H4H prefix)) VH: EVQLVQSGAEVKKPGESLKISCSGSGYRFTNYWIAWVRQMPGKGLEWMGLIHPDDSDIRYSPSFQGQVTFSVDKSINTAYLQWSSLKASDTAMYYCTRQDGILWSHNAWFDPWGQGTLVTVSS VL: not shown | 0 | – | 0 | no binding (tested: 100 nM) | 2 | 55 | 11.7 | 0.00117 | 100000 | 9.9 | 1 | – | – | 76 | 16.9 | 0.00428 | 253000 | 2.7 | -1 | no binding (tested: 100 nM) | binding result [1]: no binding (tested: 100 nM); binding result [5]: no binding (tested: 100 nM)
3 | H4H17038P2 (antibody, human IgG4 S228P, kappa, V domains shown, human IgG4 Fc; also called REGN5714; MAB3) VH: EVQLVESGGDLVQPGGSLRLSCAASGFTFSSYEMNWVRQAPGKGLEWVSFISDSSSNIYYADSVKGRFTISRDNAKKSLYLQMTSLRAEDTAVYYCAREAIGSTSFDNWGQGTLVTVSS VL: EIVMTQSPATLSVSPGERATLSCRASQSVSSSLAWYQQKPGQAPRRLIYSASTRATGIPARFSGSGSGTEFTLTISSLQSEDFAIYYCHQYNNWPLTFGGGTKVEIKR | 105 | 41.4 | -1 | – | 2 | 63 | 9.98 | – | – | 1.8 | – | 50.5 | 1.8 | 56 | 35.6 | – | – | 0.39 | -1 | no binding (tested: 100 nM) | t½ [1]: 1.9 min

Stronger by Kd [4], values ahead:

Row | 100 nM Analyte Bound (RU) [1] [RU] | Kd [1] [nM] | 100 nM Analyte Bound (RU) [2] [RU] | binding result [2] | 100 nM Analyte Bound (RU) [3] [RU] | 100 nM natural Bet v 1- MMH Bound (RU) [4] [RU] | Kd [4] [nM] | koff [4] [s⁻¹] | kon [4] [M⁻¹ s⁻¹] | t½ [4] [min] | 100 nM Analyte Bound (RU) [5] [RU] | Kd [5] [nM] | t½ [5] [min] | 100 nM natural Bet v 1-MHH Bound (RU) [6] [RU] | Kd [6] [nM] | koff [6] [s⁻¹] | kon [6] [M⁻¹ s⁻¹] | t½ [6] [min] | 100 nM Analyte Bound (RU) [7] [RU] | binding result [3] | Binder | other results
4 | 126 | 13.8 | 0 | no binding (tested: 100 nM) | 59 | 63 | 5.61 | 0.00105 | 187000 | 11 | 160 | 13.1 | 2.2 | 71 | 14.6 | 0.00406 | 278000 | 2.8 | 0 | – | H4H17031P (antibody, human IgG4, V domains shown, Fully human antibody with human IgG4 Fc (H4H prefix)) VH: QVQLQQWGAGLLKPSETLSLTCVVYGESFGNYHWNWIRQSPGKRLEWIGEINQNGHTNYNPSLKSRVTISVDTSKIQFSLRLNSVTAADTAVYFCARGHNYVNSYFGLDVWGQGTTVTVSS VL: EIVMTQSPATLSVSPGERATLSCRTSQSVSISLAWYQRKPGQAPRLLIFGSSTRATGVPARFSGSGSGTEFTLTISSLQSEDFAVYYCQQYNNWPYTFGQGTKLEIK | koff [1]: 0.00111 s⁻¹; kon [1]: 80400 M⁻¹ s⁻¹; t½ [1]: 10 min; Kd [3]: 45 nM; koff [3]: 0.00238 s⁻¹; kon [3]: 52900 M⁻¹ s⁻¹; t½ [3]: 4.8 min; koff [5]: 0.00517 s⁻¹; kon [5]: 395000 M⁻¹ s⁻¹; binding result [7]: no binding (tested: 100 nM)
5 | 159 | 2.43 | 1 | no binding (tested: 100 nM) | 16 | 71 | 0.854 | 0.000693 | 811000 | 17 | 95 | 45 | 2.6 | 77 | 2.32 | 0.00235 | 1.01e+06 | 4.9 | 1 | – | H4H17028P (antibody, human IgG4, V domains shown, Fully human antibody with human IgG4 Fc (H4H prefix)) VH: QVQLVESGGGVVQPGRSLRLSCAASGFTFSRYAIHWVRQAPGKGLEWVAVISYDGDDKYYGDSVKGRFTISRDNSKTMVYLHMNSLRTEDTAVYYCAKDGYSLYGKDYFDYWGQGTLVTVSS VL: EIVLTQSPGTLPLSPGERATLSCRASQSITNSYLAWYQQKPDQAPRLLIYGASSRATGIPDRFSGSESGTDFTLTISRLEPEDFAVYYCQQYVRSPWTFGQGTKVEIK | koff [1]: 0.000511 s⁻¹; kon [1]: 210000 M⁻¹ s⁻¹; t½ [1]: 23 min; Kd [3]: 36.7 nM; koff [3]: 0.0019 s⁻¹; kon [3]: 51700 M⁻¹ s⁻¹; t½ [3]: 6.1 min; koff [5]: 0.00437 s⁻¹; kon [5]: 97100 M⁻¹ s⁻¹; binding result [7]: no binding (tested: 100 nM)
6 | 0 | – | 39 | – | 3 | 67 | 0.768 | 0.000415 | 540000 | 28 | 111 | 33.4 | 0.3 | 79 | 1.34 | 0.00118 | 883000 | 9.8 | 1 | no binding (tested: 100 nM) | H4H17033P (antibody, human IgG4, V domains shown, Fully human antibody with human IgG4 Fc (H4H prefix)) VH: QVQLVQSGAEVKKPGASVKVSCKASGYTFAAHYMHWVRQAPGQGLEWMGWINTYTGGTNYGQKFQGRVTMTRDTSITTAYMELSRLRSDDTAVYYCARDRRNWNFVFEYWGQGTLVTVSS VL: DIQMTQSPSSLSASVGDRVTISCRASQNIKNYLNWYQQKPGKAPKLLIYEASNLQSGAPSRFSGSGSGTDFTLTISSLEPEDFATYYCQQSFSIPWTFGQGTKVEIK | binding result [1]: no binding (tested: 100 nM); Kd [2]: 167 nM; koff [2]: 0.0791 s⁻¹; kon [2]: 475000 M⁻¹ s⁻¹; t½ [2]: 0.2 min; koff [5]: 0.0447 s⁻¹; kon [5]: 1.34e+06 M⁻¹ s⁻¹; binding result [7]: no binding (tested: 100 nM)
